# According to article PMC6663954:
# Target: RsPGs (polygalacturonases from Rhizoctonia solani) (Rhizoctonia solani)
substance,measurement,value
"OsPGIP2^L233F, recombinant His-tagged (natural protein)","reduction of RsPG activity, reduced sugar assay (polygalacturonic acid, 50 mM sodium citrate pH 5.0, 37 °C, 1 h)",40.6%
